# Columns and labels:
# FLAG-Alcalpha = test system: T1, FLAG-Alcalpha
# T1 sequence 1: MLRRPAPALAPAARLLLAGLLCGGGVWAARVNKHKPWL
# T1 sequence 2: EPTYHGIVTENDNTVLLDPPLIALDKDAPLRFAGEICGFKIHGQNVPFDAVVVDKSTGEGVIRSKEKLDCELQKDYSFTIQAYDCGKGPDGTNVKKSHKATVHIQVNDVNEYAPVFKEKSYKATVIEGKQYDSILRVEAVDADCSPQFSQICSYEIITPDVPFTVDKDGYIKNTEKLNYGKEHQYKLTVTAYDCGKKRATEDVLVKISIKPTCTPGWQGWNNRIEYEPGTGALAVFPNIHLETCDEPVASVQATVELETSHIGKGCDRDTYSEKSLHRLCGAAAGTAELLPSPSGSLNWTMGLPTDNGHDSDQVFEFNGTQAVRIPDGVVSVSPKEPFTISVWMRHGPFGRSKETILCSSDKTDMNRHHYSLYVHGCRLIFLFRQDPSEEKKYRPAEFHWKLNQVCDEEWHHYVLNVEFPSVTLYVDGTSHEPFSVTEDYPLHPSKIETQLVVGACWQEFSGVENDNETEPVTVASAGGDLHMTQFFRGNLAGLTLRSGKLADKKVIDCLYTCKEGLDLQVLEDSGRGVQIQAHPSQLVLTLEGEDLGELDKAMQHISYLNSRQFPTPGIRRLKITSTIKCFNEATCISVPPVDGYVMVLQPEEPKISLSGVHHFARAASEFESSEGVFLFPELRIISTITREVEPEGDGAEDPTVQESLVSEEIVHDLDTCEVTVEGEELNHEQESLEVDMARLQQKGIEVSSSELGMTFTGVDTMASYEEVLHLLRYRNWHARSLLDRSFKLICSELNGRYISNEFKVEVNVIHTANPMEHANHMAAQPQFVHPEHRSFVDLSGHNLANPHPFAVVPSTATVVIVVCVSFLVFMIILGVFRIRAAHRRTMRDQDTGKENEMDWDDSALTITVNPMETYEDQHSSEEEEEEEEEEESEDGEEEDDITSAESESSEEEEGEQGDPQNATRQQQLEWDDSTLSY
# FLAG-Alcbeta = test system: T2, FLAG-Alcbeta
# T2 sequence 1: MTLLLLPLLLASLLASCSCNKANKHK
# T2 sequence 2: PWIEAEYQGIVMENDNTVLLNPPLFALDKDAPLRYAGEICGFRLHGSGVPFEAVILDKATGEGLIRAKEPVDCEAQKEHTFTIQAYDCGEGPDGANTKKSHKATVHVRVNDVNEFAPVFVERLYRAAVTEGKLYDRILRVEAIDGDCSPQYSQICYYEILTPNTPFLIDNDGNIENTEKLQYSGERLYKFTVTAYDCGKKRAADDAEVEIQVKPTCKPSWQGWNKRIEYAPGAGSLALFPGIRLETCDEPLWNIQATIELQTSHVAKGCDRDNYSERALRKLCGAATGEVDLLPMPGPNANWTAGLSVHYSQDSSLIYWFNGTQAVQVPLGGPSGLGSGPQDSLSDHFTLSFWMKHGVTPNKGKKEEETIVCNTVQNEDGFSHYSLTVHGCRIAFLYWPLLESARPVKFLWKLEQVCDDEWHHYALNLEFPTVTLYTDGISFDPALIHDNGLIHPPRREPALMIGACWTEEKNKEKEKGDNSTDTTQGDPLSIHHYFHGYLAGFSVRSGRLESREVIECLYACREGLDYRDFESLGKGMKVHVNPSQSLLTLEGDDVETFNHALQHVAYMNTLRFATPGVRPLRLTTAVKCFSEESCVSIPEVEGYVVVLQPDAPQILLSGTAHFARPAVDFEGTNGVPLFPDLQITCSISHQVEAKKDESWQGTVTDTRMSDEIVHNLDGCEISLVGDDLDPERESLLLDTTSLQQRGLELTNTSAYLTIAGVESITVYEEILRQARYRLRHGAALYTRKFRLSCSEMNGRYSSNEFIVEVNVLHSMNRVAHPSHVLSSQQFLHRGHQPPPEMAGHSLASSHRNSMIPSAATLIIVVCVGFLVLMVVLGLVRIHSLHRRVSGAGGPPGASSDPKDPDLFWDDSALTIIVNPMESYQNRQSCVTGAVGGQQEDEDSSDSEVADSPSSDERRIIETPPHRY
# FLAG-Alcgamma = test system: T3, FLAG-Alcgamma
# T3 sequence 1: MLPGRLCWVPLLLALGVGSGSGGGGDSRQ
# T3 sequence 2: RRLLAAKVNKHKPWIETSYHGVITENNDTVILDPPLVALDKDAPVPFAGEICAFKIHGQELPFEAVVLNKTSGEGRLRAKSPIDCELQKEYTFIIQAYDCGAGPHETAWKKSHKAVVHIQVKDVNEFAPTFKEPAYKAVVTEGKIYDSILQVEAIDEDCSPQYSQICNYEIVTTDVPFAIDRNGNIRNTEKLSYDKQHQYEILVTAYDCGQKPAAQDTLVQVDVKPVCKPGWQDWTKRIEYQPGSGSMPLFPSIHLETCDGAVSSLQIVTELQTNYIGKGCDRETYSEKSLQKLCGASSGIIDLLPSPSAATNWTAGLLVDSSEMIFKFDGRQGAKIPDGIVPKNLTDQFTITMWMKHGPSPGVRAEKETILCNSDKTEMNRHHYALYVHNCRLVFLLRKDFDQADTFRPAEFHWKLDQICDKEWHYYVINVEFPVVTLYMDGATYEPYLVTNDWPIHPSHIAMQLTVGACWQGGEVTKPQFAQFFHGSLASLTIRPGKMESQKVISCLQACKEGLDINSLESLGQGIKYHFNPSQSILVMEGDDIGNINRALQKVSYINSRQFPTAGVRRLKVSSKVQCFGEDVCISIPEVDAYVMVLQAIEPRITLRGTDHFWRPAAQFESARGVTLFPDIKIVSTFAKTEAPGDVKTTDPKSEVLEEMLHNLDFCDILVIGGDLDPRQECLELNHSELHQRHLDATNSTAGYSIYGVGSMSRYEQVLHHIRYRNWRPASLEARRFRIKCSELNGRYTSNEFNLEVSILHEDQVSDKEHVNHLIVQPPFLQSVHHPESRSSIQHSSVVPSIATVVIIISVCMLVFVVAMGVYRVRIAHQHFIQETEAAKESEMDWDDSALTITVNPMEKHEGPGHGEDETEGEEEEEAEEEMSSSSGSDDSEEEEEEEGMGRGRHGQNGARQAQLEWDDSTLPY
# FLAG-APP = FLAG-APP (UniProt P05067)
# Sequence of FLAG-APP (P05067 whole entry, looked up): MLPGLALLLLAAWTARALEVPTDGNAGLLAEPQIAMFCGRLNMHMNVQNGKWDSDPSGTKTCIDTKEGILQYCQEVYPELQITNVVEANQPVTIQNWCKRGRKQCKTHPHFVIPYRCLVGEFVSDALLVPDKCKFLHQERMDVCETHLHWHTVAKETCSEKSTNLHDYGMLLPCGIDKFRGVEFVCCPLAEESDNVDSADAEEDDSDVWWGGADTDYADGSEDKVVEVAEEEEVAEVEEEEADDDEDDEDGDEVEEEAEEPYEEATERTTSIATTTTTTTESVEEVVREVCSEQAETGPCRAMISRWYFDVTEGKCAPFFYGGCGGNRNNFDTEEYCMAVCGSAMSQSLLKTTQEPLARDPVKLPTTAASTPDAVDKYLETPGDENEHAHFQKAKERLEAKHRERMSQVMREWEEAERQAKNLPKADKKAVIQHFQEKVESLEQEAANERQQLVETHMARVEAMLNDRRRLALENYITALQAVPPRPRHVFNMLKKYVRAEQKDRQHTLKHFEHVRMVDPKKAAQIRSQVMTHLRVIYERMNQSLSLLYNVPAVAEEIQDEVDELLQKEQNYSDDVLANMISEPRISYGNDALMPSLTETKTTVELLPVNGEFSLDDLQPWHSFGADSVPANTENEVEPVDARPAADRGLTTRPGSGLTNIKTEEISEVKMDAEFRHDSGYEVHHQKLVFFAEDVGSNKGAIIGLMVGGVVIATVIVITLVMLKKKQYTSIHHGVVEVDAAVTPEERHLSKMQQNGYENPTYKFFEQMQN
# Sequence of ADAM10-HA (O14672 whole entry): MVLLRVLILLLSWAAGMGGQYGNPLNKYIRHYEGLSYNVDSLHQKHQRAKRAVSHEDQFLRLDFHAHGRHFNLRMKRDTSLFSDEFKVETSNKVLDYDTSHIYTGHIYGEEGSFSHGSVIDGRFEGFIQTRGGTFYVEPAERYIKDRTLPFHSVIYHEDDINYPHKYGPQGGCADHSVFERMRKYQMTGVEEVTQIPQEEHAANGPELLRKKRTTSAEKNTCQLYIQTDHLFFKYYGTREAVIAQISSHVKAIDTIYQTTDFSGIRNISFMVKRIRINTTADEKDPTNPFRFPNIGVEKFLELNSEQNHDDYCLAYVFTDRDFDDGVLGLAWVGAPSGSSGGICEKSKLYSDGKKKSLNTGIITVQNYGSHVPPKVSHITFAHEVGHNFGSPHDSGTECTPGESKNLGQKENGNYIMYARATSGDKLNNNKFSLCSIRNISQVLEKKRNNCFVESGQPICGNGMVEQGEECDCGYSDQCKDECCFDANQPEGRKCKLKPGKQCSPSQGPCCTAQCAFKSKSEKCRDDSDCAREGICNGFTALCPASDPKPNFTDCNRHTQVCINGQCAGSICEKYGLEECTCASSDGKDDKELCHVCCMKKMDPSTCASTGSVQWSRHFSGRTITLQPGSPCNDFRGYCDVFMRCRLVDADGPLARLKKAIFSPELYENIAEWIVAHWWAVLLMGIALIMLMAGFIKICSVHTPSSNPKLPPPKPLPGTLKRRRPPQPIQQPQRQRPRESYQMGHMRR
substance,measurement,setting,value
ADAM10-HA,amount of sAlcalpha secreted by ADAM (-/-) MEFs with exogenous ADAM10,FLAG-Alcalpha,"The amounts of sAlcalpha, sAlcbeta, and sAlcgamma secreted by ADAM (-/-) MEFs were restored in response to the expression of exogenous ADAM10"
same,amount of sAlcbeta secreted by ADAM (-/-) MEFs with exogenous ADAM10,FLAG-Alcbeta,"The amounts of sAlcalpha, sAlcbeta, and sAlcgamma secreted by ADAM (-/-) MEFs were restored in response to the expression of exogenous ADAM10"
same,amount of sAlcgamma secreted by ADAM (-/-) MEFs with exogenous ADAM10,FLAG-Alcgamma,"The amounts of sAlcalpha, sAlcbeta, and sAlcgamma secreted by ADAM (-/-) MEFs were restored in response to the expression of exogenous ADAM10"
same,amount of sAPP secreted by ADAM (-/-) MEFs with exogenous ADAM10 against without,FLAG-APP,about 1.7 fold over that of sAPP secreted by ADAM (-/-) MEFs
